Experiments:
Assay type in all cases: cell-based
[1] = test system: suspension cell-line WEHI 231.7; assay: Transfection with luciferase plasmid, compound of Example 1b or cationic lipids (Table 4); conditions: for Luciferase activity: WEHI 231.7, 6 well plates, 2 μg DNA per well, 48 h, background subtracted, DOTAP/DOSPER at cationic lipid/DNA 5/1 (wt/wt)
Description: a) 1.0 mg of the compound obtained in Example 1b) was dissolved in trifluoroethanol and dried in vacuo. The film was then rehydrated with 1 ml of 10 mM Tris maleate buffer pH 6.
b) 10 μl of a plasmid DNA solution (1 mg/ml) were diluted with 190 μl of pure, sterile water. 100 μl of the product obtained in paragraph a) were added and gently mixed. The mixture was then added to cells.
Table 4: Transfection of various cell lines with the compound of Example 1b or cationic lipids. Cells grown in 6 well plates were transfected with a luciferase encoding plasmid (2 μg DNA per well) formulated as described earlier in this Example. Luciferase activity was measured 48 h later. Results are expressed as light units per mg of cell protein. Background was substracted from each measurement.
*)DOTAP (Avanti Polar Lipids Inc.) or DOSPER (BoehringerMannheim)
transfection complexes were prepared according to manufacturer's
instructions and were used at a cationic lipid/DNA ratio of 5/1 (wt/wt).

293-EBNA = assay: Transfection with luciferase plasmid, compound of Example 1b/DOPE or cationic lipids (Table 2); conditions: 48 h after transfection, Example 1b mixed with DOPE per Example 2, DOTAP, Lipofectamine per manufacturer
Description: (§1) a) 1.1 mg of the compound obtained in Example 1b) were solubilized in trifluoroethanol and mixed with 1.1 mg of dioleoylphosphatidyl-ethanolamine (DOPE) in chloroform. The mixture was dried in vacuo and the remaining film rehydrated with 1 ml of 30 mM Tris Cl buffer pH 8.5. […]
(§2) b) Plasmid DNA (10 μg) was diluted in 400 μl of 30 mM Tris Cl buffer pH 8.5. Then […] of the product obtain in paragraph a) were added and gently mixed. The mixture was then added to cells.
(§3) |Transfection of various cell lines with a mixture of the | compound of Example 1b and DOPE or cationic lipids. Cells were | transfected with a luciferase encoding plasmid formulated as described | earlier in this Example. Luciferase activity was measured 48 h after | transfection. Results are expressed as μ Units per well, | ^2) DOTAP and Lipofectamine transfection complexes were prepared
(§4) according to the manufacturer's instructions.

C2E12 = assay: as above; conditions: 48 h after transfection, Example 1b mixed with DOPE per Example 2, DOTAP, Lipofectamine per manufacturer
Description: as §1, §2, §3, §4

CHO K1 = assay: as above; conditions: 48 h after transfection, Example 1b mixed with DOPE per Example 2, DOTAP, Lipofectamine per manufacturer
Description: as §1, §2, §3, §4

HeLa = assay: as above; conditions: 48 h after transfection, Example 1b mixed with DOPE per Example 2, DOTAP, Lipofectamine per manufacturer
Description: as §1, §2, §3, §4

LM tk- = assay: as above; conditions: 48 h after transfection, Example 1b mixed with DOPE per Example 2, DOTAP, Lipofectamine per manufacturer
Description: as §1, §2, §3, §4

LM = assay: as above; conditions: 48 h after transfection, Example 1b mixed with DOPE per Example 2, DOTAP, Lipofectamine per manufacturer
Description: as §1, §2, §3, §4

3T3 = assay: Transfection with β-galactosidase plasmid, increasing DNA doses (Table 3); conditions: mixture with DOPE, 48 h after transfection
Description: as §1, §2
(§5) The effect of DNA dose on the transfection efficiency of various cell lines using the compound obtained in Example 1b formulated according to the example 2 is shown in Table 3.
(§6) |Transfection of various cell lines with a mixture of the | compound of Example lb and DOPE using increasing DNA doses. Cells
(§7) were transfected with a β-galactosidase encoding plasmid formulated […]
(§8) described earlier in this Example. β-galactosidase activity was […]
(§9) 48 h after transfection. Results are expressed as μ Units per well, […]

COS-1 = assay: as above; conditions: mixture with DOPE, 48 h after transfection
Description: as §1, §2, §5, §6, §7, §8, §9

CV-1 = assay: as above; conditions: mixture with DOPE, 48 h after transfection
Description: as §1, §2, §5, §6, §7, §8, §9

HepG2 = assay: as above; conditions: mixture with DOPE, 48 h after transfection
Description: as §1, §2, §5, §6, §7, §8, §9

various cell lines = assay: Toxicity on cells at high doses of DNA and compound (Table 3 experiment); conditions: formulated according to Example 2
Description: a) 1.1 mg of the compound obtained in Example 1b) were solubilized in trifluoroethanol and mixed with 1.1 mg of dioleoylphosphatidyl-ethanolamine (DOPE) in chloroform. The mixture was dried in vacuo and the remaining film rehydrated with 1 ml of 30 mM Tris Cl buffer pH 8.5.
as §2, §5

293 EBNA cells = assay: Transfection of 293 EBNA cells with compound of Example 1b, polyethylenimine or a mixture thereof (Table 5); conditions: 6 cm dishes, 1 μg DNA per well, 48 h
Description: a) 1.0 mg of the compound obtained in Example 1b) was dissolved in trifluoroethanol and dried in vacuo. The film was then rehydrated with 1 ml of 10 mM Tris maleate buffer pH 6. b) 10 μl of a plasmid DNA solution (1 mg/ml) were diluted with 200 μl of pure, sterile water. 39 μl of the product obtained in paragraph a) and 14 μl of an aqueous polyethylenimine solution (0.45 mg/ml) were added. The mixture was adjusted with water to 300 μl, gently mixed and then added to 292 EBNA cells. […]
c) 10 μl of a plasmid DNA solution (1 mg/ml) were diluted with 200 μl of pure, sterile water. 52 μl of the product obtained in paragraph a) were added and adjusted with water to 300 μl. The mixture was gently mixed and then added to 292 EBNA cells. […]
d) 10 μl of a plasmid DNA solution (1 mg/ml) were diluted with 200 μl of pure, sterile water. 56 μl of an aqueous polyethylenimine solution (0.45 mg/ml) were added and adjusted with water to 300 μl. The mixture was gently mixed and then added to 292 EBNA cells.
Transfection of 293 EBNA cells with the compound of Example
| 1b, polyethylenimine or a mixture thereof. Cells grown in 6 cm dishes | were transfected with a luciferase encoding plasmid (1 μg DNA per […]
formulated as described earlier in this Example. Luciferase activity […]
measured 48 h later. Results are expressed as relative light units per

With `CCCCCCCC/C=C\CCCCCCCC(=O)OCC(COC(=O)CCCCCCC/C=C\CCCCCCCC)NC(=O)C(CCCNCCCN)NCCCN` (stereo not drawn) [DOSPER] the Luciferase activity [1] was 0 light units per mg of cell pro.

Work on `CCCCCCCC/C=C\CCCCCCCC(=O)OCC(C[N+](C)(C)C)OC(=O)CCCCCCC/C=C\CCCCCCCC` (stereo not drawn) [DOTAP, reference compound] yielded a Luciferase activity (293-EBNA) of 706718 μ Units per well, a Luciferase activity (C2E12) of 156947 μ Units per well and a Luciferase activity (CHO K1) of 814133 μ Units per well. For the same molecule, the Luciferase activity (HeLa) was 5409 μ Units per well, the Luciferase activity (LM tk-) was 594518 μ Units per well and the Luciferase activity (LM) was 68614 μ Units per well. For the same molecule, the Luciferase activity [1] was 0 light units per mg of cell pro.

“compound of formula IIA wherein R^1 and R^2 are oleoyl and R^3 is the residue --(CH2)--CH(NH2)--CO-Ile-Gly-Ala-Val-Leu-Lys-Val-Leu-Thr-Thr-Gly-Leu-Pro-Ala-Leu-Ile-Ser-Trp-Ile-Lys-Arg-Lys-Arg-Gln-Gln-NH2 [Example 1b]” gave a Luciferase activity (293-EBNA) of 2343658 μ Units per well, a Luciferase activity (C2E12) of 563827 μ Units per well and a Luciferase activity (CHO K1) of 1825019 μ Units per well. For the same molecule, the Luciferase activity (HeLa) was 33497 μ Units per well, the Luciferase activity (LM tk-) was 1712739 μ Units per well and the Luciferase activity (LM) was 31685 μ Units per well. It also gave a Galactosidase activity (3T3; 0.2 μg DNA) of 318 μ Units per well, a Galactosidase activity (3T3; 0.5 μg DNA) of 451 μ Units per well and a Galactosidase activity (3T3; 1 μg DNA) of 1032 μ Units per well. It also gave a Galactosidase activity (3T3; 2 μg DNA) of 1301 μ Units per well, a Galactosidase activity (COS-1; 0.2 μg DNA) of 16325 μ Units per well and a Galactosidase activity (COS-1; 0.5 μg DNA) of 20545 μ Units per well. For the same molecule, the Galactosidase activity (COS-1; 1 μg DNA) was 16005 μ Units per well, the Galactosidase activity (COS-1; 2 μg DNA) was 15740 μ Units per well and the Galactosidase activity (CV-1; 0.2 μg DNA) was 2700 μ Units per well. It also gave a Galactosidase activity (CV-1; 0.5 μg DNA) of 4440 μ Units per well, a Galactosidase activity (CV-1; 1 μg DNA) of 9775 μ Units per well and a Galactosidase activity (CV-1; 2 μg DNA) of 20434 μ Units per well. For the same molecule, the Galactosidase activity (HepG2; 0.2 μg DNA) was 2533 μ Units per well, the Galactosidase activity (HepG2; 0.5 μg DNA) was 7944 μ Units per well and the Galactosidase activity (HepG2; 1 μg DNA) was 8988 μ Units per well. For the same molecule, the Galactosidase activity (HepG2; 2 μg DNA) was 13816 μ Units per well, the Toxicity on cells (various cell lines) was “without any obvious toxicity” and the “Ability to transfect the suspension cell-line WEHI 231.7” value ([1]; compared with DOTAP and DOSPER, same transfection conditions) was “able to transfect the suspension cell-line WEHI 231.7, albeit at a low level”. The Luciferase activity (293 EBNA cells) was 3.9 × 10^5 relative light units per dish.
